Test results published in patent publication US8088617B2, “Antibodies that bind the glutamate ligand binding region of Notch1” (OncoMed Pharmaceuticals, Inc., priority 2007, dated 2012).
Entries after “also recorded” stand apart in the source; their conditions may differ. One block for each molecule: values may come before it.

What was measured:
[1] = system: Notch signaling (ICD formation) in Hela cells stably expressing Notch1; assay: Western blot of Notch ICD formation in response to DLL4; assay type: cell-based; conditions: 10 ug/ml soluble DLL4-Fc; western blot of cell lysates
Description: FIG. 8: Monoclonal Antibodies to the Notch Ligand Binding Domain Inhibit Notch Signaling. A) A schematic of the Notch signaling mechanism. Upon ligand binding, gamma secretase activity cleaves the Notch receptor and liberates the intracellular domain (ICD) to activate downstream Notch signaling. B) Monoclonal antibodies against the Notch ligand binding domain inhibit Notch signaling in response to Notch ligand DLL4.
In certain embodiments, the ability of antibodies against a Notch ligand binding region to block Notch signaling was measured by inhibition of Notch cleavage in response to ligand stimulation. Hela cells stably expressing Notch1 were cultured in DMEM supplemented with antibiotics and 10% FCS. Cells were then incubated in the presence of 10 ug/ml soluble DLL4-Fc protein in the presence or absence of monoclonal antibodies against a Notch ligand binding domain, control antibodies, antibodies against Notch1 binding outside the ligand binding region (13M57), and gamma secretase inhibitor DBZ. Cells were harvested and cell lysates analyzed by western blot using an antibody that recognizes the cleaved intracellular domain (ICD) of Notch generated in response to ligand induced signaling (FIG. 8A).

human Notch1 = molecular target: T1, human Notch1 (Homo sapiens, UniProt P46531); assay: FACS: inhibition of DLL4 binding to Notch1 on stably transfected HEK293 cells; conditions: soluble DLL4-fc, increasing concentrations of antibody
T1 construct: expressed in transfected cells
Experimental: FIG. 6: Affinity Matured mAbs that Bind the Ligand Binding Domain of Notch1 Inhibit Binding of DLL4 to Notch1. […] Three affinity matured variants were tested for their ability to block binding between DLL4 and Notch1 (y-axis) in the presence of increasing concentrations of antibody (x-axis).
The ability of antibodies specific for the critical ligand binding region to inhibit binding of Notch ligands to Notch was evaluated. In certain embodiments, the ability of a panel of affinity matured monoclonal antibodies specific for the Notch1 ligand binding region to inhibit binding of DLL4 to Notch1 was determined by FACS analysis (FIG. 6). HEK293 cells stably transfected with human Notch1 were incubated with soluble DLL4-fc fusion protein in the presence of increasing concentrations of 90R21, 90R22, and 90R29 antibodies. […] HEK293 cells co-transfected with GFP and full length Notch3 were incubated with a soluble human Jag1-fc fusion protein in the absence (No Ab) or presence (122R03E1) of the fAb.

PE13 breast tumor cells = assay: PE13 breast tumor xenograft growth; assay type: in vivo, NOD/SCID mice
Experimental: (§1) FIG. 9: Monoclonal Antibodies to the Notch Ligand Binding Domain Inhibit Tumor Growth In Vivo. NOD/SCID mice were injected with dissociated PE13 (A) or T3 (B) breast tumor cells and treated with either control antibodies (black squares); anti-Notch ligand binding region antibodies 90R21 (open circles); control antibodies in combination with Paclitaxel (black triangles); or 90R21 antibodies in combination with Paclitaxel (open triangles).
(§2) In certain embodiments, tumor cells from a patient sample (solid tumor biopsy or pleural effusion) that have been passaged as a xenograft in mice were prepared for repassaging into experimental animals. Tumor tissue was removed under sterile conditions, cut up into small pieces, minced completely using sterile blades, and single cell suspensions obtained by enzymatic digestion and mechanical disruption. Specifically, pleural effusion cells or the resulting tumor pieces were mixed with ultra-pure collagenase III in culture medium (200-250 units of collagenase per mL) and incubated at 37° C. for 3-4 hours with pipetting up and down through a 10-mL pipette every 15-20 minutes. Digested cells were filtered through a […] nylon mesh, washed with RPMI/20% FBS, and washed twice with HBSS. […]
(§3) In certain embodiments, anti-Notch ligand binding region antibodies were analyzed for their ability to reduce the growth of breast tumors in vivo. […]

T3 breast tumor cells = assay: T3 breast tumor xenograft growth; assay type: in vivo, NOD/SCID mice; conditions: estrogen pellet
Experimental: as §1, §2, §3

Notch1 E424Q = molecular target: T2, Notch1 E424Q (Homo sapiens, UniProt P46531, E424Q); assay: FACS binding to HEK293 cells co-transfected with GFP and Notch1 E424Q; conditions: HEK293 cells co-transfected with GFP
T2 construct: Full-length wild type Notch1 or Notch1 E424Q was co-transfected with GFP into HEK 293 cells; expressed in transfected cells; host or cells: HEK293
Description: (§4) FIG. 4: Identification of a fAb that Binds a Critical Ligand Binding Domain of Notch1. FACS analysis of HEK 293 cells co-transfected with GFP and either wild type Notch or Notch1 E424Q using a human fAb identified by phage display as binding the ligand binding domain of Notch1. GFP expression marked cells expressing recombinant Notch1 protein (x-axis) and binding to Notch1 is indicated along the y-axis.
(§5) FIG. 5: Identification of an Antibody that Binds the Ligand Binding Region of Multiple Notch Receptors. FACS analysis of HEK 293 cells co-transfected with GFP and wild type Notch3, Notch1 or Notch1 E424Q using a human fAb identified by phage display as binding the ligand binding domain of Notch3. GFP expression marked transfected cells expressing recombinant Notch protein (x-axis). Binding of fAb is indicated on the y-axis.
(§6) To confirm that the lead Notch1 fAb was specific for the ligand binding region of Notch1, HEK293 cells were co-transfected with GFP and either wild type full length Notch1 or Notch1 containing the amino acid substitution E424Q.

[2] = molecular target: T3, wild type full length Notch1 (Homo sapiens, UniProt P46531); assay: FACS binding to HEK293 cells co-transfected with GFP and wild type Notch1; conditions: HEK293 cells co-transfected with GFP
T3 construct: co-transfected with GFP and either wild type full length Notch1; expressed in transfected cells; host or cells: HEK293
Description: as §4, §5, §6

murine Notch3 = murine Notch3 (Mus musculus, UniProt Q61982); assay: fAb binding to murine Notch3 (phage display selection)
Experimental: (§7) In certain embodiments, phage display identified a specific fAb that binds to the ligand binding domain within Notch1. In certain embodiments, phage display identified a specific fAb that binds to the ligand binding domain within Notch3. In certain embodiments, a fAb was discovered that bound to the ligand binding domain of both Notch3 and Notch1. In certain embodiments, 2×10^13 Fab displaying phage particles from a human fAb phage library were incubated with cells expressing full length recombinant protein or passively immobilized recombinant protein fragments, non-specific phage were washed off, and then specific phage were eluted with either low pH (cells) or DTT (recombinant protein). The eluted output was used to infect TG1 F+ bacteria, rescued with helper phage, and then Fab display induced with IPTG (0.25 mM). The output of this rescued round one served as the starting point for further selections in rounds two, three, four, and five as indicated in Table 1.
(§8) For Notch3, the phage display library was panned for binding to the analogous epitope within Notch3 (comprising amino acid 403 of Notch3) using similar approach for as Notch1. […] The 122R5 heavy chain comprises the amino acids of SEQ ID NO: 9, including CDR1 (SEQ ID NO: 10); CDR2 (SEQ ID NO: 11) and CDR3 (SEQ ID NO: 12). […]

human Notch3 = human Notch3 (Homo sapiens, UniProt Q9UM47); assay: fAb binding to human Notch3 (phage display selection)
Experimental: as §7, §8

Notch3 (E403Q) = Notch3 (E403Q) (Homo sapiens, UniProt Q9UM47, E403Q); assay: fAb binding to Notch3 with E403Q substitution
Description: For Notch3, the phage display library was panned for binding to the analogous epitope within Notch3 (comprising amino acid 403 of Notch3) using similar approach for as Notch1. […] The 122R5 heavy chain comprises the amino acids of SEQ ID NO: 9, including CDR1 (SEQ ID NO: 10); CDR2 (SEQ ID NO: 11) and CDR3 (SEQ ID NO: 12). The 122R5 light chain comprises the amino acids of SEQ ID NO: 13, including CDR1 (SEQ ID NO: 14); CDR2 (SEQ ID NO: 15) and CDR3 (SEQ ID NO: 16).

[3] = antibody 10 mg/kg twice a week in combination with Paclitaxel 10 mg/kg once a week
[4] = antibody alone 10 mg/kg twice a week, vs control antibody, after 55 days

T1 sequence (P46531 19-2555): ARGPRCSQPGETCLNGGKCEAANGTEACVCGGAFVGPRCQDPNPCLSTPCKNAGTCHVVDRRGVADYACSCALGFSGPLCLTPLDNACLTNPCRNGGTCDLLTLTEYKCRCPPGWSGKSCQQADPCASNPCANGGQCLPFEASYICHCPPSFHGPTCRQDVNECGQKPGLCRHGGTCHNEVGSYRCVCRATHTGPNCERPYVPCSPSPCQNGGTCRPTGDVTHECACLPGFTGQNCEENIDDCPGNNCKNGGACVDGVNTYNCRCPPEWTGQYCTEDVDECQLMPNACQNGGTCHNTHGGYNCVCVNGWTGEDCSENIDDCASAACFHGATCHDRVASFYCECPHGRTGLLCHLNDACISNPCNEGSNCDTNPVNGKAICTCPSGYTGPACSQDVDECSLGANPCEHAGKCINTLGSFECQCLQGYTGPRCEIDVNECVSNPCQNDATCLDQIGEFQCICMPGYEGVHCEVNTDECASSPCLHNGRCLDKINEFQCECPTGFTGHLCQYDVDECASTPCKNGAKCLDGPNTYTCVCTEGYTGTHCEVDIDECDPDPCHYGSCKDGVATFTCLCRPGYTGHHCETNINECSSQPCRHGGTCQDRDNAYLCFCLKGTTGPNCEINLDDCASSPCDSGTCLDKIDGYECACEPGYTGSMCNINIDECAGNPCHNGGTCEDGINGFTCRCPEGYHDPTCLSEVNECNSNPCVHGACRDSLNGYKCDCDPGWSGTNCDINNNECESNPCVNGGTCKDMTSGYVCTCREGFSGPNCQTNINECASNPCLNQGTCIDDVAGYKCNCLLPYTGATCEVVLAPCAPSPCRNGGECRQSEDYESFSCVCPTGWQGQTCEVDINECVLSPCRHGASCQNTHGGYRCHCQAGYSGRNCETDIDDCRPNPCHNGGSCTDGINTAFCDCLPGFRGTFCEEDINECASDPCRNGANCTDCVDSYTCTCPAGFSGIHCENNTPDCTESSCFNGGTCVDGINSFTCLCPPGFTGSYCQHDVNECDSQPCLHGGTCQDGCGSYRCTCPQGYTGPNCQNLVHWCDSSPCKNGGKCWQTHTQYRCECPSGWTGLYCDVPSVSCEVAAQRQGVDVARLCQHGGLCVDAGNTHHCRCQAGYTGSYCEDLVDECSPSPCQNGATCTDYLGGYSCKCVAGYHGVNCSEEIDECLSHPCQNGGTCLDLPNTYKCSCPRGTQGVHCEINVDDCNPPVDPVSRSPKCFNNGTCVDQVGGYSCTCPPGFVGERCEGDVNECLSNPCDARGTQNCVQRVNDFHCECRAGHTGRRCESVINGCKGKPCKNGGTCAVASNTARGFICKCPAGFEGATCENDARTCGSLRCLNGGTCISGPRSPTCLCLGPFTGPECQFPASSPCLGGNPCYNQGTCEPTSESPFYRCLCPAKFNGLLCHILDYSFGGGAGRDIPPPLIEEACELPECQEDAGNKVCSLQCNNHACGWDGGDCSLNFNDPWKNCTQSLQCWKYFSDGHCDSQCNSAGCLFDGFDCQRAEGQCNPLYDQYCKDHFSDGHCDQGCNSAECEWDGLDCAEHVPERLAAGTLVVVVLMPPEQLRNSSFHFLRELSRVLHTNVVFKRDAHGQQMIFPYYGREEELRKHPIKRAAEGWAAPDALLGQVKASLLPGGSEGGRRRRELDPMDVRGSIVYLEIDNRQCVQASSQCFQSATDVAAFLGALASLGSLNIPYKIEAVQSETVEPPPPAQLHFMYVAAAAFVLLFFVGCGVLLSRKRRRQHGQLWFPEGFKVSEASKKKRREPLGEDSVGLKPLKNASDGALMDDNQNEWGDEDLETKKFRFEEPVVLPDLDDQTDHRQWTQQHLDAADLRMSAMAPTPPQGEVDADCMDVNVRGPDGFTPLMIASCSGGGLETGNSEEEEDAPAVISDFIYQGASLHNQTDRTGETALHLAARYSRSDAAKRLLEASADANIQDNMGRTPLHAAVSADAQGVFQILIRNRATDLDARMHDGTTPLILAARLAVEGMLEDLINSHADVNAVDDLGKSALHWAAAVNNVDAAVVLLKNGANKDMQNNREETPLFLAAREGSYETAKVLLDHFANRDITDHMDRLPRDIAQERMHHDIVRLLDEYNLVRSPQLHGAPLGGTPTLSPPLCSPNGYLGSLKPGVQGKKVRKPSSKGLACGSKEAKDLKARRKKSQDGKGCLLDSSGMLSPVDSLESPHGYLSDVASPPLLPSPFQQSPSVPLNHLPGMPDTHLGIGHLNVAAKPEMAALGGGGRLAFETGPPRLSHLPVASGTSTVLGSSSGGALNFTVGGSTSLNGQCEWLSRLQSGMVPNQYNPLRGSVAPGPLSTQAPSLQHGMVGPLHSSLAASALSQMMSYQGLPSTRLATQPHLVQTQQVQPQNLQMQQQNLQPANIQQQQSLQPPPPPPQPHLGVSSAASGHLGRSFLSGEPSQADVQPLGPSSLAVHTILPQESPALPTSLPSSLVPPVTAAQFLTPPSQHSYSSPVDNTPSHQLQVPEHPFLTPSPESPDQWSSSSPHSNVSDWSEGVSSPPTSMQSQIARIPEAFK
Chain of murine Notch3 (Q61982 40-2318): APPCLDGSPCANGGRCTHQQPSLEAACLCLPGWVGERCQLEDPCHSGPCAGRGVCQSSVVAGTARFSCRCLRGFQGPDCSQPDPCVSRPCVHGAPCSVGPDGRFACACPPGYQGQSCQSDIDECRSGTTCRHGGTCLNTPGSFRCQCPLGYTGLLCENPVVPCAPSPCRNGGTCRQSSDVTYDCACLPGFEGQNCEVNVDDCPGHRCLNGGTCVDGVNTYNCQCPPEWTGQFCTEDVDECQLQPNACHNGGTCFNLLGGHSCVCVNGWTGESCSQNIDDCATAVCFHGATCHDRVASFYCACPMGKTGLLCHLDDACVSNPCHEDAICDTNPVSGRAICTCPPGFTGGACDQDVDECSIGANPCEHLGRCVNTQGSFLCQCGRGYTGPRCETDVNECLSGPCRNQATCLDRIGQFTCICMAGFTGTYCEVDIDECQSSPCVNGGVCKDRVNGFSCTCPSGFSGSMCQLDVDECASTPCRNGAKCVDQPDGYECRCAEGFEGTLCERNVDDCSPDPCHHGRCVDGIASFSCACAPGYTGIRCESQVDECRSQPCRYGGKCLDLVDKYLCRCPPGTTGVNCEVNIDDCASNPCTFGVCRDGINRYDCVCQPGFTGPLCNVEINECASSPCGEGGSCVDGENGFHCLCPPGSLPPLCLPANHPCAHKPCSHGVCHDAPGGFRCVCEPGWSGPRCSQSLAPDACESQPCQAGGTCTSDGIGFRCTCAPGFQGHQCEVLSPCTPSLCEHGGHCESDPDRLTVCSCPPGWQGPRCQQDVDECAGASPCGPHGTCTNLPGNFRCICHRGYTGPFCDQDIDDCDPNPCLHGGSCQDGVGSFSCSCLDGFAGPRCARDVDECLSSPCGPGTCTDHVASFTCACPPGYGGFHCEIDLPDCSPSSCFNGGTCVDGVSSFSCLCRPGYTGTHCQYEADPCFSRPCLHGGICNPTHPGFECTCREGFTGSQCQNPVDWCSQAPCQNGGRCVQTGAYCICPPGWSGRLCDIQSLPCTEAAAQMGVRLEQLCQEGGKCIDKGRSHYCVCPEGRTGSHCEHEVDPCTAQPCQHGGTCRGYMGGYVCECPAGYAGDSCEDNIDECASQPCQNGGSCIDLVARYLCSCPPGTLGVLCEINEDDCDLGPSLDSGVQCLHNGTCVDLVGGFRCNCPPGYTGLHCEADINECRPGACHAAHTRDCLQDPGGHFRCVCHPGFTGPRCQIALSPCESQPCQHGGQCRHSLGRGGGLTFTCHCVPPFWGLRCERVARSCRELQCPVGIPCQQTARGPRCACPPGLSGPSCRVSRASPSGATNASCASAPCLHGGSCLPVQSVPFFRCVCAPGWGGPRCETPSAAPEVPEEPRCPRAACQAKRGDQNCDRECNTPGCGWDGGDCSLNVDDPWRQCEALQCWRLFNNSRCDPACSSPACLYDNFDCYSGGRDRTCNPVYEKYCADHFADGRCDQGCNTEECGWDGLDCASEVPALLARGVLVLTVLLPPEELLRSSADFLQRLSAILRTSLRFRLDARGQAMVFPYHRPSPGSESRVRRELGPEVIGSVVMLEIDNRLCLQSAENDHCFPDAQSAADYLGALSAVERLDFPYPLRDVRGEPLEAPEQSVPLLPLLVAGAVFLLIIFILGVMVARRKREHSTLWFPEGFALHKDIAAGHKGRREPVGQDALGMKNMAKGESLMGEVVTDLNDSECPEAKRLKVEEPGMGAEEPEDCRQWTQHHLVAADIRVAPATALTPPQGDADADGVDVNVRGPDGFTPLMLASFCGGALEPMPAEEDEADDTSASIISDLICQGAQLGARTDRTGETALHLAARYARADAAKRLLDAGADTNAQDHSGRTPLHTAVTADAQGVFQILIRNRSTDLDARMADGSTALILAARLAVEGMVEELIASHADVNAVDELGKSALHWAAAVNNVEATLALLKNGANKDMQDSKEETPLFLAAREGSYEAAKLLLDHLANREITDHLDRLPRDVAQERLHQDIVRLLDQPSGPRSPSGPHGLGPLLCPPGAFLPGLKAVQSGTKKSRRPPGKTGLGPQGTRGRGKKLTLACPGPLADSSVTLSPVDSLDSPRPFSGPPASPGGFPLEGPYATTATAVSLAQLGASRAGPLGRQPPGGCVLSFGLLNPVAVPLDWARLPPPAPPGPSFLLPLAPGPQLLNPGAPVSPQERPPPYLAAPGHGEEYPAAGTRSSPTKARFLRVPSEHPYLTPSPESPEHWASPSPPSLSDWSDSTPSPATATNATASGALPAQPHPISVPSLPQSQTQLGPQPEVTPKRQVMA
T2 sequence (P46531 19-2555 E424Q): as the sequence (P46531 19-2555) above, with E406Q counted along it

Molecule: C[C@H](NC(=O)Cc1cc(F)cc(F)c1)C(=O)N[C@@H]1C(=O)N(C)c2ccccc2-c2ccccc21 [DBZ, reference compound]
formation of Notch ICD in response to DLL4 [1]: prevented formation of Notch ICD; also recorded: blocked this signaling event

B1: 90R21: affinity matured anti-Notch1 ligand binding domain antibody; heavy chain SEQ ID NO: 1, light chain SEQ ID NO: 5; ATCC PTA-8909 (antibody)
heavy: MKHLWFFLLLVAAPRWVLSEVQLLESGGGLVQPGGSLRLSCAASGFTFSNYGMSWVRQAPGKGLEWVSSISGYGSNTYYADSVKGRFTISRDNSKNTLYLQMNSLRAEDTAVYYCARISQQAVWGQGTLVTVSSASTKGPSVFPLAPCSRSTSESTAALGCLVKDYFPEPVTVSWNSGALTSGVHTFPAVLQSSGLYSLSSVVTVPSSNFGTQTYTCNVDHKPSNTKVDKTVERKCCVECPPCPAPPVAGPSVFLFPPKPKDTLMISRTPEVTCVVVDVSHEDPEVQFNWYVDGVEVHNAKTKPREEQFNSTFRVVSVLTVVHQDWLNGKEYKCKVSNKGLPAPIEKTISKTKGQPREPQVYTLPPSREEMTKNQVSLTCLVKGFYPSDIAVEWESNGQPENNYKTTPPMLDSDGSFFLYSKLTVDKSRWQQGNVFSCSVMHEALHNHYTQKSLSLSPGK
light: MAWALLLLTLLTQGTGSWAQSALTQPASVSGSPGQSITISCTGTSSDIGGYQYVSWYQQHPGKAPKLMIYYVSNRPSGVSNRFSGSKSGNTASLTISGLQAEDEADYYCQSADSSSWVFGGGTKLTVLGQPKAAPSVTLFPPSSEELQANKATLVCLISDFYPGAVTVAWKADSSPVKAGVETTTPSKQSNNKYAASSYLSLTPEQWKSHRSYSCQVTHEGSTVEKTVAPTECS
modifications: Synthetic 90R21 Heavy chain; Synthetic 90R21 Light chain
blocking of binding between DLL4 and Notch1 (human Notch1): blocked the binding; also recorded: disrupted ligand binding | tumor growth, PE13, combination (PE13 breast tumor cells; [3]): virtually eliminated tumor growth | tumor growth, PE13 (PE13 breast tumor cells; [4]): significantly reduced tumor growth; also recorded: reduced tumor growth significantly | formation of Notch ICD in response to DLL4 [1]: prevented formation of Notch ICD; also recorded: inhibited ICD formation | tumor growth, T3, combination (T3 breast tumor cells; [3]): virtually eliminated T3 tumor growth | tumor growth, T3 (T3 breast tumor cells; [4]): significantly reduced tumor growth; also recorded: reduced tumor growth significantly

binding to cells expressing Notch1 E424Q (Notch1 E424Q): not to Notch1(E424Q) | binding to cells expressing wild type Notch1 [2]: ability to bind to Notch1 | binding to murine Notch3 (murine Notch3): bound | binding to human Notch3 (human Notch3): bound | binding to Notch3 (E403Q) (Notch3 (E403Q)): not Notch3 (E403Q)
B2: 122R5: lead anti-Notch3 fAb; heavy chain SEQ ID NO: 9, light chain SEQ ID NO: 13; ATCC PTA-8908 (antibody)
heavy: MKHLWFFLLLVAAPRWVLSQVQLVESGGGLVQPGGSLRLSCAASGFTFSDNAIHWVRQAPGKGLEWVSAISSYGSGTYYADSVKGRFTISRDNSKNTLYLQMNSLRAEDTAVYYCARPGFQFSFTFMDIWGQGTLVTVSSASTKGPSVFPLAPCSRSTSESTAALGCLVKDYFPEPVTVSWNSGALTSGVHTFPAVLQSSGLYSLSSVVTVPSSNFGTQTYTCNVDHKPSNTKVDKTVERKCCVECPPCPAPPVAGPSVFLFPPKPKDTLMISRTPEVTCVVVDVSHEDPEVQFNWYVDGVEVHNAKTKPREEQFNSTFRVVSVLTVVHQDWLNGKEYKCKVSNKGLPAPIEKTISKTKGQPREPQVYTLPPSREEMTKNQVSLTCLVKGFYPSDIAVEWESNGQPENNYKTTPPMLDSDGSFFLYSKLTVDKSRWQQGNVFSCSVMHEALHNHYTQKSLSLSPGK
light: MAWALLLLTLLTQGTGSWADIELTQPPSVSVAPGQTARISCSGDALGSKYASWYQQKPGQAPVLVIYDDKNRPSGIPERFSGSNSGNTATLTISGTQAEDEADYYCQSWDGKSKVVFGGGTKLTVLGQPKAAPSVTLFPPSSEELQANKATLVCLISDFYPGAVTVAWKADSSPVKAGVETTTPSKQSNNKYAASSYLSLTPEQWKSHRSYSCQVTHEGSTVEKTVAPTECS
modifications: Synthetic 122R5 Heavy chain; Synthetic 122R5 Light chain
